Experimental data reported in patent publication US20210024646A1 (FUDAN UNIVERSITY, published 2021).
Numbering of substitutions follows the chain as printed. Several values for one entry are separate records, joined by “and”; a condition that tells them apart may be missing. Identical values can stand only once.

Assays:
[1] = target: T1, extracellular domain of human CD73 protein (CD73-ECD), C-terminus polyhistidine-tagged (human, UniProt P21589 27-547); assay: ELISA, coated CD73-ECD
T1 construct: also called Human CD73-ECD; human recombinant CD73 enzyme (CD73 extracellular domain)
T1 sequence: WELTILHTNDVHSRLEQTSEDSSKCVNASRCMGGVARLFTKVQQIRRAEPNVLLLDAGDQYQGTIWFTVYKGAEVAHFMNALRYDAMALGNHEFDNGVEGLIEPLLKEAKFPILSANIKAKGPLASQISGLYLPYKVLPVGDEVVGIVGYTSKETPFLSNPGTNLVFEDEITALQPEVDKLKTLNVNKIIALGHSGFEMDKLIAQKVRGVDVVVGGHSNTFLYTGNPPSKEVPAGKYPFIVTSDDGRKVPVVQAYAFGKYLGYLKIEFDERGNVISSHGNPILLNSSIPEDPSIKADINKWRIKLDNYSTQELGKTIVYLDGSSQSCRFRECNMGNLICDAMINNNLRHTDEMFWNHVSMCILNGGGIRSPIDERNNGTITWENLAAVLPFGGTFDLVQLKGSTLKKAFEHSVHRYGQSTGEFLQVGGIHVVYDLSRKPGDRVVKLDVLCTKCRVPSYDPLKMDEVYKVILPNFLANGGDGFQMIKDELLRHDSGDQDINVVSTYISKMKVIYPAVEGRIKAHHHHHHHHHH

[2] = target: T2, CD73 on the surface of human tumor cells (human, UniProt P21589 27-549); assay: flow cytometry, MDA-MB-231 cells
T2 construct: whole, on cells; One entry for endogenous CD73 on all cell lines; the cell line is named under assay or readout; also called CD73 receptors on the surface of tumor cells; tumor cell CD73
T2 sequence (looked up): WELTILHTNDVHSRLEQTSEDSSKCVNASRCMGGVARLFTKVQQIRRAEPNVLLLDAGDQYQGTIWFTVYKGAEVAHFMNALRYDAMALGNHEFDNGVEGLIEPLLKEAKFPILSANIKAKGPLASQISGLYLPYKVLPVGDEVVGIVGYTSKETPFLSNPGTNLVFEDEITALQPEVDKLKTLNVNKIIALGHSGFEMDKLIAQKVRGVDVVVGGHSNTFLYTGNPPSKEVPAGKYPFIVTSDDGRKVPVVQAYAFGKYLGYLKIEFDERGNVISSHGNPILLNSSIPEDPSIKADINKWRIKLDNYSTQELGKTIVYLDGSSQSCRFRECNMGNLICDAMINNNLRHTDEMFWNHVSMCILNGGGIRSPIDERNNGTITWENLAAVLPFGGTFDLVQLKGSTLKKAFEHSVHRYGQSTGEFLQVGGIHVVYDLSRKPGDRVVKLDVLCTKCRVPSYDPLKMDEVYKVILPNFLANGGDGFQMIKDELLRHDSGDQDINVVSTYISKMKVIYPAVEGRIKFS

[3] = target: T1, extracellular domain of human CD73 …; assay: cell-based or functional assay
[4] = target: T2, CD73 on the surface of human tumor cells; assay: cell-based or functional assay
[5] = target: T2, CD73 on the surface of human tumor cells; assay: flow cytometry, NCI-H1299 cells
[6] = target: T2, CD73 on the surface of human tumor cells; assay: FACS, 5 µg/mL antibody, CD73-high Calu-1 against CD73-low MDA-MB-453 cells
Protocol: 3×10⁵ tumor cells were mixed well with the antibody (final concentration was 5 μg/mL), and then incubated at 4° C. for 1 h. The cells were washed twice with PBS to remove the unbound primary antibody. Then the target cells were incubated with PE-labeled secondary antibody at 4° C. for 30 minutes. The cells were washed twice with PBS to remove the unbound secondary antibody. Finally, the cells were resuspended in 200 μL PBS and the binding rate was detected with a Fluorescence Activated Cell Sorter (FACS).
The chimeric antibody could specifically recognize and bind tumor cells with CD73 high expression.

[7] = target: T2, CD73 on the surface of human tumor cells; assay: FACS, NCI-H1299 cells
Protocol: Alternatively, 100 μL of mAb001c, mAb002c, mAb004c diluted in a 3-fold gradient from 100 nM to 0.046 nM were used as primary antibodies and mixed with 1×10⁵ NCI-H1299 cells suspended in 100 μL RPMI-1640 serum-free medium. Then the obtained solutions were incubated at 4° C. for 1 h, the cells were washed twice with PBS to remove unbound primary antibody, and the target cells were incubated with 200 μL PE-labeled secondary antibody (2 μg/mL) at 4° C. for 30 min. The cells were washed twice with PBS to remove unbound secondary antibody. Finally, the cells were resuspended in 200 μL PBS, and the binding affinities of the test antibodies to CD73 on the cell surface were determined by a flow cytometer.
With reference to the methods in Examples 4-8, the ELISA affinity to CD73-ECD protein, the inhibitory activity on recombinant human CD73 enzyme, the binding affinity to tumor cells, and the inhibitory activity on CD73 enzyme of tumor cells of the above prepared MEDI9447-κ as well as the antibodies mAb001c and mAb002c were detected.

[8] = target: T2, CD73 on the surface of human tumor cells; assay: FACS, MDA-MB-231 cells
[9] = target: T2, CD73 on the surface of human tumor cells; assay: cell-based or functional assay; remark: listed apart in the source

B1: Hu001c-22 (antibody, V domains shown)
VH: QVQLVQSGAEVKKPGASVKVSCKASGYTFTNYYIYWVKQRPGQRLEWIGWIYPGNLNIKYNEKFKGRVTITADKSASTAYMELSSLRSEDTAVYYCARDDNYAWFAYWGQGTLVTVSS
VL: DIQMTQSPSSLSASVGDRVTITCKASQDVSTAVAWYQQKPGKAPKLLIYWTNTRHTGVPSRFSGSGSGTDHTLTISSLQPEDFATYYCQQHYSTPFTFGQGTKLEIK
notes: Humanized
[1]
  binding result: binds
[2]
  binding result: binds

B2: Hu001c-23 (antibody, V domains shown)
VH: B1 VH with R44G
VL: B1 VL
notes: Humanized
[1]
  binding result: binds
[2]
  binding result: binds

B3: Hu001c-24 (antibody, V domains shown)
VH: B1 VH with A24T, R44G
VL: B1 VL
notes: Humanized
[1]
  binding result: binds
[2]
  binding result: binds

B4: Hu001c-25 (antibody, V domains shown)
VH: B1 VH with K38R, R40A
VL: B1 VL with A43S
notes: Humanized
[1]
  binding result: binds
[2]
  binding result: binds

B5: mAb004c (antibody, V domains shown)
VH: EVQLQQSGPELVKPGASVKIPCKASGYTFTDYNMDWVKQSHGKSLEWIGDINPNNGGSVYNQKFKGKATLTVDKSSSTAYMELRSLTSEDTAVYYCGRITGTGYWSFDVWGTGTTVTVSP
VL: DIQMTQSPASLSVSVGETVTITCRASENIYSNLAWYQQKQGKSPQLLVYGATNLAEGVPSRFSGSGLGTQYSLKISSLQSEDFGSYYCQHFWGIPWTFGGGTKLEIK
notes: also called human-mouse chimeric antibody mAb004c
[1]
  EC50: 0.038 nM
[3]
  IC50, inhibition of AMP hydrolysis by recombinant human CD73 (CellTiter-Glo): 0.039 nM
[4]
  IC50, inhibition of CD73 enzyme on Calu-1 cells (AMP hydrolysis): 0.63 nM
  IC50, inhibition of CD73 enzyme on MDA-MB-231 cells (AMP hydrolysis): 4.16 nM
  IC50, inhibition of CD73 enzyme on NCI-H1299 cells (AMP hydrolysis): 0.385 nM
[5]
  EC50: 2.2 nM
[2]
  EC50: 2.5 nM
[6]
  difference in binding rate (MFI), Calu-1 against MDA-MB-453: 856 times

B6: mAb002c-VH-QG/VK-SG (antibody, V domains shown)
VH: QVQLQQPGAELVKPGASVRLSCKASGYTLTSYWMHWVKKRPGQGLEWIGEINPSQGRSNYNEKFKSKATLTVDRSSSTVYMQLGSLTSEDSAVYYCARRGVSGNYFDYWGQGTTLTVSS
VL: DIKMTQSPSSMYASLGERVTMTCKASQDINTYLSWFQQKPGKSPKTLIYRSNILVSGVPSRFSGSRSGQDYYLTITSLEYEDMGIYYCLQYDEFPYTFGGGTKLELK
[3]
  IC50, inhibition of the catalytic function of recombinant human CD73 (CellTiter-Glo): 0.038 nM and 0.06 nM

B7: mAb002c-VK-SG (antibody, V domains shown)
VH: B6 VH with Q55N
VL: B6 VL
[2]
  EC50: 0.46 nM

B8: mAb002c-VH-QG (antibody, V domains shown)
VH: B6 VH
VL: B6 VL with S56D
[2]
  EC50: 0.43 nM

B9: mAb002c-VH-NA (antibody, V domains shown)
VH: B6 VH with Q55N, G56A
VL: B6 VL with S56D
[2]
  EC50: 0.43 nM

B10: Hu002c-4 (antibody, V domains shown)
VH: QVQLVQSGAEVKKPGASVKVSCKASGYTLTSYWMHWVRQAPGQGLEWMGEINPSQGRSNYNEKFKSRVTMTRDTSTSTVYMELSSLRSEDTAVYYCARRGVSGNYFDYWGQGTLVTVSS
VL: DIQMTQSPSSLSASVGDRVTITCKASQDINTYLSWFQQKPGKSPKSLIYRSNILVSGVPSRFSGSGSGQDYTLTISSLQPEDFAIYYCLQYDEFPYTFGGGTKLEI
notes: Humanized
[1]
  binding result: binds
[5]
  binding result: binds

B11: Hu002c-12 (antibody, V domains shown)
VH: B10 VH with M48I, R67K, M70L, R72V, T74R
VL: B10 VL
notes: Humanized
[1]
  binding result: binds
[5]
  binding result: binds

B12: Hu002c-16 (antibody, V domains shown)
VH: B10 VH with R38K, Q39K, M48I, R67K, M70L, R72V, T74R
VL: B10 VL
notes: Humanized
[1]
  binding result: binds
[5]
  binding result: binds

B13: mAb001c (antibody, V domains shown)
VH: QVQLQQSGPELVKPGASVRISCKTSGYTFTNYYIYWVKQRPGQGLEWIGWIYPGNLNIKYNEKFKGKSTLTADKSSSTAFMQLSSLTSEDSAVYFCARDDNYAWFAYWGQGTLVTVSS
VL: DIVMTQSHKFMSTSIGDRVSITCKASQDVSTAVAWYQQKPGQSPKLLIYWTNTRHTGVPDRFTGNTSGTEHTLTISSVQAEDLALYYCQQHYSTPFTFGSGTTLEIK
notes: also called human-mouse chimeric antibody mAb001c
[1]
  EC50: 0.024 nM
[3]
  IC50, inhibition of AMP hydrolysis by recombinant human CD73 (CellTiter-Glo): 0.025 nM
[7]
  EC50: 1.03 nM
[8]
  EC50: 0.712 nM
[9]
  Calu-1 CD73 Enzyme Inhibition IC50: 0.506 nM
  MDA-MB-231 CD73 Enzyme Inhibition IC50: 1.86 nM
  NCI-H1299 CD73 Enzyme Inhibition IC50: 0.236 nM
[5]
  EC50: 1 nM
[2]
  EC50: 0.7 nM
[6]
  difference in binding rate (MFI), Calu-1 against MDA-MB-453: 250 times

B14: mAb001c-VK-SGS (antibody, V domains shown)
VH: B13 VH
VL: B13 VL with N65S, T66G
[3]
  IC50, inhibition of the catalytic function of recombinant human CD73 (CellTiter-Glo): 0.02 nM
[2]
  EC50: 1.39 nM

B15: MEDI9447-κ (antibody, V domains shown)
VH: EVQLLESGGGLVQPGGSLRLSCAASGFTFSSYAYSWVRQAPGKGLEWVSAISGSGGRTYYADSVKGRFTISRDNSKNTLYLQMNSLRAEDTAVYYCARLGYGRVDEWGRGTLVTVSS
VL: QSVLTQPPSASGTPGQRVTISCSGSLSNIGRNPVNWYQQLPGTAPKLLIYLDNLRLSGVPDRFSGSKSGTSASLAISGLQSEDEADYYCATWDDSHPGWTFGGGTKLTVL
[7]
  EC50: 1.27 nM
[8]
  EC50: 0.752 nM
[9]
  Calu-1 CD73 Enzyme Inhibition IC50: 0.527 nM
  MDA-MB-231 CD73 Enzyme Inhibition IC50: 1.1 nM
  NCI-H1299 CD73 Enzyme Inhibition IC50: 0.388 nM
